The source of these data is the supplement of paper PMC7877785.

The series is described as follows: self-splicing fitness, log relative to wild type (ln ratio); higher = more splicing; Tetrahymena group I intron in knt gene, E. coli kanamycin selection, DiMSum; sequences stand for … in CUCUCU…GGAGGGAAAAGUUAUCAGGCAUGCACCUGGUAGCUAGUCUUUAAACCAAUAGAUUGCAUCGGUUUAAAAGGCAAGACCGUCAAAUUGCGGGAAAGGGGUCAACAGCCGUUCAGUACCAAGUCUCAGGGGAAACUUUGAGAUGGCCUUGCAAAGGGUAUGGUAAUAAGCUGACGGACAUGGUCCUAACCACGCAGCCAAGUCCUAAGUCAACAGAUCUUCUGUUGAUAUGGAUGCAGUUCACAGACUAAAUGUCGGUCGGGGAAGAUGUAUUCUUCUCAUAAGAUAUAGUCGGACCUCUCCUUAAUGGGAGCUAGCGGAUGAAGUGAUGCAACACUGGAGCCGCUGGGAACUAAUUUGUAUGCGAAAGUAUAUUGAUUAGUUUUGGAGUACUCGUGGUCG
A digest of the protocol:
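Colonies from six replicate transformations of E. coli BL21(DE3) were pooled and amplicon-sequenced on an Illumina HiSeq 2500. The library placed an intron with all eight P1ex-region nucleotides randomised inside the knt kanamycin-resistance gene on pET-22b(+), and cells grew overnight at 37°C or 30°C on LB agar with or without 25 μg/mL kanamycin (plus 100 μg/mL carbenicillin, 50 μM IPTG, 0.2% rhamnose). Fitness is the DiMSum error-weighted combination of wild-type-normalised replicate fold changes, kanamycin versus none.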

± gives the uncertainty stated by the source.

For GGGUAGCAAUAUUACGAUAU, the “self-splicing fitness (ln)” value by setting is: (30 °C) -0.506 ± 0.11; (37 °C) -0.0772 ± 0.12.

With GGGUAGCAAUAUUACGAUUC, the “self-splicing fitness (ln)” value by setting is: (30 °C) -0.648 ± 0.12; (37 °C) 0.268 ± 0.19. As to GGGUAGCAAUAUUACGCAAG, the “self-splicing fitness (ln)” value is -1.59 ± 0.11 (30 °C) and -0.847 ± 0.16 (37 °C). On the same counts, the results for GGGUAGCAAUAUUACGCACA are -0.833 ± 0.2 and 0.402 ± 0.22. Take GGGUAGCAAUAUUACGCGAC: the “self-splicing fitness (ln)” value is -2.34 ± 0.2 (30 °C) and -1.62 ± 0.23 (37 °C). Taken in the same sequence, the figures for GGGUAGCAAUAUUACGCGAU were -3.42 ± 0.26 and -1.93 ± 0.23. Turning to GGGUAGCAAUAUUACGCUAC, the “self-splicing fitness (ln)” value (30 °C) was -1.81 ± 0.34. Consider GGGUAGCAAUAUUACGCUGG, for which the “self-splicing fitness (ln)” value runs as follows: (30 °C) -2.61 ± 0.35; (37 °C) -2.45 ± 0.42. On the same counts, the results for GGGUAGCAAUAUUACGCUGU are -3.54 ± 0.38 and -2.32 ± 0.29. GGGUAGCAAUAUUACGGAGG: the “self-splicing fitness (ln)” value (37 °C) was -0.988 ± 0.29.

Regarding GGGUAGCAAUAUUACGGGUC, the “self-splicing fitness (ln)” value is, setting by setting: (30 °C) -2.32 ± 0.17; (37 °C) -1.1 ± 0.18. Turning to GGGUAGCAAUAUUACGGUCC, the “self-splicing fitness (ln)” value (30 °C) is -1.34 ± 0.25.

On to GGGUAGCAAUAUUACGUCGA, for which the “self-splicing fitness (ln)” value (30 °C) is -0.508 ± 0.14 and the “self-splicing fitness (ln)” value (37 °C) is -0.243 ± 0.15. Take GGGUAGCAAUAUUACGUCGG: the “self-splicing fitness (ln)” value runs as follows: (30 °C) -3.8 ± 0.2; (37 °C) -1.68 ± 0.17. On the same counts, the results for GGGUAGCAAUAUUACGUGAG are -0.474 ± 0.074 and 0.074 ± 0.11. For GGGUAGCAAUAUUACGUUUU, the “self-splicing fitness (ln)” value was -1.31 ± 0.063 (30 °C) and -0.826 ± 0.1 (37 °C).

Consider GGUAAGCAAUAUUACGAAAU, for which the “self-splicing fitness (ln)” value is -1.94 ± 0.34 (30 °C) and -0.431 ± 0.32 (37 °C). Regarding GGUAAGCAAUAUUACGACUC, the “self-splicing fitness (ln)” value runs as follows: (30 °C) 0.295 ± 0.12; (37 °C) -0.605 ± 0.18. On the same counts, the results for GGUAAGCAAUAUUACGAGAG are -3.7 ± 0.4 and -3.25 ± 0.25. On the same counts, the results for GGUAAGCAAUAUUACGCAAU are -1.38 ± 0.11 and -1.44 ± 0.14. Consider GGUAAGCAAUAUUACGCCCA, for which the “self-splicing fitness (ln)” value runs as follows: (30 °C) -1.68 ± 0.23; (37 °C) -1.01 ± 0.27. As for GGUAAGCAAUAUUACGCCUG, the “self-splicing fitness (ln)” value (37 °C) was -1.53 ± 0.33.

GGUAAGCAAUAUUACGCGAG: the “self-splicing fitness (ln)” value is, setting by setting: (30 °C) -2.95 ± 0.15; (37 °C) -0.704 ± 0.09.

As to GGUAAGCAAUAUUACGCGCG, the “self-splicing fitness (ln)” value is -0.623 ± 0.1 (30 °C) and 0.012 ± 0.14 (37 °C).

On to GGUAAGCAAUAUUACGCGUG, for which the “self-splicing fitness (ln)” value was -2.42 ± 0.18 (30 °C) and -0.242 ± 0.15 (37 °C). Taken in the same sequence, the figures for GGUAAGCAAUAUUACGCUGA were -2.82 ± 0.28 and -0.411 ± 0.22. Taken in the same sequence, the figures for GGUAAGCAAUAUUACGCUUG were -3.34 ± 0.38 and -1.7 ± 0.34. Turning to GGUAAGCAAUAUUACGGCUG, the “self-splicing fitness (ln)” value is -0.805 ± 0.14 (30 °C) and 0.356 ± 0.15 (37 °C).

With GGUAAGCAAUAUUACGGGGA, the “self-splicing fitness (ln)” value (37 °C) was -2.42 ± 0.33. In the case of GGUAAGCAAUAUUACGGGUU, the “self-splicing fitness (ln)” value (30 °C) is -1.82 ± 0.076 and the “self-splicing fitness (ln)” value (37 °C) is -1.69 ± 0.11.

In the case of GGUAAGCAAUAUUACGGUGC, the “self-splicing fitness (ln)” value (30 °C) is -1.14 ± 0.15 and the “self-splicing fitness (ln)” value (37 °C) is -0.983 ± 0.26. On the same counts, the results for GGUAAGCAAUAUUACGGUGU are -1.81 ± 0.1 and -0.484 ± 0.11. On to GGUAAGCAAUAUUACGGUUU, for which the “self-splicing fitness (ln)” value (30 °C) is -0.707 ± 0.056 and the “self-splicing fitness (ln)” value (37 °C) was -0.0713 ± 0.083. On the same counts, the results for GGUAAGCAAUAUUACGUAGU are -1.48 ± 0.11 and -1.46 ± 0.17. Taken in the same sequence, the figures for GGUAAGCAAUAUUACGUGGU were -1.33 ± 0.29 and -2.48 ± 0.21.

Turning to GGUAAGCAAUAUUACGUGUC, the “self-splicing fitness (ln)” value is -2.08 ± 0.23 (30 °C) and -0.504 ± 0.3 (37 °C). Regarding GGUCAGCAAUAUUACGACAG, the “self-splicing fitness (ln)” value is, setting by setting: (30 °C) -0.391 ± 0.11; (37 °C) 0.151 ± 0.13. Taken in the same sequence, the figures for GGUCAGCAAUAUUACGACCU were -3.06 ± 0.3 and -2.07 ± 0.32. On the same counts, the results for GGUCAGCAAUAUUACGACUG are -0.394 ± 0.15 and -0.586 ± 0.2.

Turning to GGUCAGCAAUAUUACGAGUC, the “self-splicing fitness (ln)” value runs as follows: (30 °C) -1.51 ± 0.09; (37 °C) -0.893 ± 0.1. For the sequence GGUCAGCAAUAUUACGAGUU, the “self-splicing fitness (ln)” value is -1.38 ± 0.068 (30 °C) and -0.17 ± 0.071 (37 °C). Take GGUCAGCAAUAUUACGAUAA: the “self-splicing fitness (ln)” value (30 °C) is 0.11 ± 0.092 and the “self-splicing fitness (ln)” value (37 °C) amounted to 0.447 ± 0.15. With GGUCAGCAAUAUUACGAUCA, the “self-splicing fitness (ln)” value by setting is: (30 °C) -0.0175 ± 0.14; (37 °C) 0.178 ± 0.13.

Turning to GGUCAGCAAUAUUACGAUGG, the “self-splicing fitness (ln)” value is, setting by setting: (30 °C) -1.34 ± 0.076; (37 °C) -0.299 ± 0.1. Turning to GGUCAGCAAUAUUACGAUUA, the “self-splicing fitness (ln)” value is -0.0947 ± 0.092 (30 °C) and -0.0575 ± 0.092 (37 °C). Taken in the same sequence, the figures for GGUCAGCAAUAUUACGCAGC were -1.76 ± 0.14 and -0.838 ± 0.13. Take GGUCAGCAAUAUUACGCCUU: the “self-splicing fitness (ln)” value (30 °C) was -0.559 ± 0.051 and the “self-splicing fitness (ln)” value (37 °C) came to 0.122 ± 0.069. Taken in the same sequence, the figures for GGUCAGCAAUAUUACGCUUU were 0.129 ± 0.071 and -0.0673 ± 0.092.

For GGUCAGCAAUAUUACGGGCG, the “self-splicing fitness (ln)” value (30 °C) was -0.483 ± 0.088 and the “self-splicing fitness (ln)” value (37 °C) amounted to 0.32 ± 0.12. Consider GGUCAGCAAUAUUACGGUUA, for which the “self-splicing fitness (ln)” value (30 °C) was -0.399 ± 0.081 and the “self-splicing fitness (ln)” value (37 °C) was 0.53 ± 0.076. Taken in the same sequence, the figures for GGUCAGCAAUAUUACGUCCA were -1.63 ± 0.11 and -1.02 ± 0.1. Take GGUCAGCAAUAUUACGUGCG: the “self-splicing fitness (ln)” value (30 °C) was determined as 0.397 ± 0.12 and the “self-splicing fitness (ln)” value (37 °C) was -0.078 ± 0.13.

For the sequence GGUCAGCAAUAUUACGUGGA, the “self-splicing fitness (ln)” value was -1.82 ± 0.14 (30 °C) and -1.58 ± 0.14 (37 °C).

With GGUCAGCAAUAUUACGUUAC, the “self-splicing fitness (ln)” value is -1.25 ± 0.061 (30 °C) and -0.483 ± 0.08 (37 °C).

Turning to GGUCAGCAAUAUUACGUUUG, the “self-splicing fitness (ln)” value was -2.61 ± 0.11 (30 °C) and -2.38 ± 0.15 (37 °C). GGUGAGCAAUAUUACGAAGG: the “self-splicing fitness (ln)” value (37 °C) is -2.87 ± 0.4.

Consider GGUGAGCAAUAUUACGAAUU, for which the “self-splicing fitness (ln)” value (30 °C) was -1.69 ± 0.36 and the “self-splicing fitness (ln)” value (37 °C) was -0.274 ± 0.38. Turning to GGUGAGCAAUAUUACGACAG, for the setting “30 °C”, the “self-splicing fitness (ln)” value was -3.05 ± 0.41. GGUGAGCAAUAUUACGAGUA: the “self-splicing fitness (ln)” value by setting is: (30 °C) -1.41 ± 0.21; (37 °C) -1.69 ± 0.29. Take GGUGAGCAAUAUUACGAUGG: the “self-splicing fitness (ln)” value (37 °C) is -1.2 ± 0.39. Turning to GGUGAGCAAUAUUACGCAAU, the “self-splicing fitness (ln)” value is -3.03 ± 0.32 (30 °C) and -1.94 ± 0.43 (37 °C).

In the case of GGUGAGCAAUAUUACGCCGU, the “self-splicing fitness (ln)” value (30 °C) is -2.63 ± 0.42.

For GGUGAGCAAUAUUACGCGGC, the “self-splicing fitness (ln)” value is, setting by setting: (30 °C) -2.2 ± 0.27; (37 °C) -1.9 ± 0.28. Turning to GGUGAGCAAUAUUACGCGUU, the “self-splicing fitness (ln)” value is -2.61 ± 0.15 (30 °C) and -0.173 ± 0.16 (37 °C). For GGUGAGCAAUAUUACGGAAG, the “self-splicing fitness (ln)” value (37 °C) is -2.66 ± 0.41.

In the case of GGUGAGCAAUAUUACGGAGA, the “self-splicing fitness (ln)” value (30 °C) was -1.36 ± 0.37. On to GGUGAGCAAUAUUACGGCAA, for which the “self-splicing fitness (ln)” value is, setting by setting: (30 °C) -1.26 ± 0.34; (37 °C) -1.28 ± 0.42. On the same counts, the results for GGUGAGCAAUAUUACGGCCA are -1 ± 0.26 and -0.395 ± 0.17. On the same counts, the results for GGUGAGCAAUAUUACGGUUA are -2.58 ± 0.22 and -1.85 ± 0.17. On the same counts, the results for GGUGAGCAAUAUUACGGUUC are -1.21 ± 0.23 and -0.574 ± 0.4. On to GGUGAGCAAUAUUACGUACC, for which the “self-splicing fitness (ln)” value reads like this: (30 °C) -3.31 ± 0.44; (37 °C) -1.75 ± 0.37.

For the sequence GGUGAGCAAUAUUACGUAUG, the “self-splicing fitness (ln)” value is, setting by setting: (30 °C) -3.26 ± 0.47; (37 °C) -0.0178 ± 0.18. Consider GGUGAGCAAUAUUACGUCCC, for which the “self-splicing fitness (ln)” value (30 °C) is -2.23 ± 0.39. For GGUGAGCAAUAUUACGUCGA, the “self-splicing fitness (ln)” value reads like this: (30 °C) -3.18 ± 0.31; (37 °C) -2.42 ± 0.28. Take GGUGAGCAAUAUUACGUGAC: the “self-splicing fitness (ln)” value was -3.14 ± 0.22 (30 °C) and -0.938 ± 0.22 (37 °C).

Take GGUGAGCAAUAUUACGUUGC: for the setting “30 °C”, the “self-splicing fitness (ln)” value was -3.27 ± 0.35. On to GGUUAGCAAUAUUACGAACG, for which the “self-splicing fitness (ln)” value was -0.128 ± 0.21 (30 °C) and -0.629 ± 0.44 (37 °C). On the same counts, the results for GGUUAGCAAUAUUACGAACU are -1.88 ± 0.27 and -0.492 ± 0.34. Consider GGUUAGCAAUAUUACGAGCG, for which the “self-splicing fitness (ln)” value is -0.684 ± 0.12 (30 °C) and -0.0379 ± 0.12 (37 °C).
